# In publication PMC9723946 (The Journal of Biological Chemistry, 2022):
# Where no end group is shown, it is not given here. Ahx = NCCCCCC(=O)O
# Target: T1, His-tagged G3BP1 NTF2 (peptide arrays) (human, UniProt Q13283 1-139)
# Assay: peptide or protein array
# T1 sequence (Q13283 1-139): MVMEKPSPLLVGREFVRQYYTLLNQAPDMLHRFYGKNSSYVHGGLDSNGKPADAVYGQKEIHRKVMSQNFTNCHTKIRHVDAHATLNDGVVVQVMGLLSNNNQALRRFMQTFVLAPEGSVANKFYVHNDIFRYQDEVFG
row,Binder,binding result
1,QGPYWFIQDSMLDFENQTLD [Caprin1 peptide N371W (SPOT array)],binds
2,QGPYNFFQDSMLDFENQTLD [Caprin1 peptide I373F (SPOT array)],binds
3,QGPYMFIQDSMLDFENQTLD [Caprin1 peptide N371M (SPOT array)],binds
4,QGPYNFIQDSMIDFENQTLD [Caprin1 peptide L378I (SPOT array)],binds
5,QGPYNFIQESMLDFENQTLD [Caprin1 peptide D375E (SPOT array)],binds
6,QGPYNFLQDSMLDFENQTLD [Caprin1 peptide I373L (SPOT array)],binds
7,QGPYKFIQDSMLDFENQTLD [Caprin1 peptide N371K (SPOT array)],binds
8,QGPYNFIQDSYLDFENQTLD [Caprin1 peptide M377Y (SPOT array)],binds
9,QGPYEFIQDSMLDFENQTLD [Caprin1 peptide N371E (SPOT array)],binds
10,QGPYIFIQDSMLDFENQTLD [Caprin1 peptide N371I (SPOT array)],binds
11,QGPYSFIQDSMLDFENQTLD [Caprin1 peptide N371S (SPOT array)],binds
12,QGPYQFIQDSMLDFENQTLD [Caprin1 peptide N371Q (SPOT array)],binds
13,QGPYNFIQDCMLDFENQTLD [Caprin1 peptide S376C (SPOT array)],binds
14,QGPYHFIQDSMLDFENQTLD [Caprin1 peptide N371H (SPOT array)],binds
15,QGPFNFIQDSMLDFENQTLD [Caprin1 peptide Y370F (SPOT array)],binds
16,QGPYRFIQDSMLDFENQTLD [Caprin1 peptide N371R (SPOT array)],binds
17,QGPYVFIQDSMLDFENQTLD [Caprin1 peptide N371V (SPOT array)],binds
18,QGPYTFIQDSMLDFENQTLD [Caprin1 peptide N371T (SPOT array)],binds
19,QGPYNFIQDSMLDFENQTLD [native Caprin1 peptide QGPYNFIQDSMLDFENQTLD (SPOT array)],binds
20,QGPYCFIQDSMLDFENQTLD [Caprin1 peptide N371C (SPOT array)],binds
21,QGPYNFIQDSFLDFENQTLD [Caprin1 peptide M377F (SPOT array)],binds
22,QGPYDFIQDSMLDFENQTLD [Caprin1 peptide N371D (SPOT array)],binds
23,QGPYLFIQDSMLDFENQTLD [Caprin1 peptide N371L (SPOT array)],binds
24,QGPYFFIQDSMLDFENQTLD [Caprin1 peptide N371F (SPOT array)],binds
25,QGPYYFIQDSMLDFENQTLD [Caprin1 peptide N371Y (SPOT array)],binds

# Target: T1, His-tagged G3BP1 NTF2 (peptide arrays)
# Assay: peptide or protein array
# Remark: another data set of the same source
row,Binder,binding result
1,HSPQYIFGDFSPDEFNQFFV [native USP10 peptide HSPQYIFGDFSPDEFNQFFV (SPOT array)],binds
2,HSPQYIFGDWSPDEFNQFFV [USP10 peptide F13W (SPOT array)],binds
3,HSPQYIFGDVSPDEFNQFFV [USP10 peptide F13V (SPOT array)],binds
4,HSPQYIFADFSPDEFNQFFV [USP10 peptide G11A (SPOT array)],binds
5,HSPQYIFGDLSPDEFNQFFV [USP10 peptide F13L (SPOT array)],binds
6,HSPQYIFGDISPDEFNQFFV [USP10 peptide F13I (SPOT array)],binds
7,HSPQYIFGDYSPDEFNQFFV [USP10 peptide F13Y (SPOT array)],binds

# Target: G3BP1 NTF2-like domain (1-139), WT (human, UniProt Q13283 1-139)
# Sequence (Q13283 1-139): as the sequence (Q13283 1-139) above
# Assay: fluorescence polarisation
row,Binder,Kd
1,{fluorescein-Ahx}-YNFIQDSMLDFE [Caprin1-derived dodecamer reporter peptide F*-YNFIQDSMLDFE],1700 nM

# Target: G3BP1 NTF2-like domain (1-139) TripleW (F15W/F33W/F124W) (human, UniProt Q13283 1-139, F15W | F33W | F124W)
# Sequence (Q13283 1-139 F15W/F33W/F124W): as the sequence (Q13283 1-139) above, with F15W, F33W, F124W counted along it
# Assay: fluorescence polarisation
row,Binder,Kd
1,{fluorescein-Ahx}-YNFIQDSMLDFE [Caprin1-derived dodecamer reporter peptide F*-YNFIQDSMLDFE],240 µM

# Target: G3BP1 NTF2-like domain (1-139) F15W (human, UniProt Q13283 1-139, F15W)
# Sequence (Q13283 1-139 F15W): as the sequence (Q13283 1-139) above, with F15W counted along it
# Assay: fluorescence polarisation
row,Binder,Kd
1,{fluorescein-Ahx}-YNFIQDSMLDFE [Caprin1-derived dodecamer reporter peptide F*-YNFIQDSMLDFE],9.3 µM

# Target: G3BP1 NTF2-like domain (1-139) F15/124W (human, UniProt Q13283 1-139, F15W | F124W)
# Sequence (Q13283 1-139 F15W/F124W): as the sequence (Q13283 1-139) above, with F15W, F124W counted along it
# Assay: fluorescence polarisation
row,Binder,Kd
1,{fluorescein-Ahx}-YNFIQDSMLDFE [Caprin1-derived dodecamer reporter peptide F*-YNFIQDSMLDFE],14.4 µM

# Target: G3BP1 NTF2-like domain (1-139) F124W (human, UniProt Q13283 1-139, F124W)
# Sequence (Q13283 1-139 F124W): as the sequence (Q13283 1-139) above, with F124W counted along it
# Assay: fluorescence polarisation
row,Binder,Kd
1,{fluorescein-Ahx}-YNFIQDSMLDFE [Caprin1-derived dodecamer reporter peptide F*-YNFIQDSMLDFE],1700 nM

# Target: G3BP1 NTF2-like domain (1-139) F15/33W (human, UniProt Q13283 1-139, F15W | F33W)
# Sequence (Q13283 1-139 F15W/F33W): as the sequence (Q13283 1-139) above, with F15W, F33W counted along it
# Assay: fluorescence polarisation
row,Binder,Kd
1,{fluorescein-Ahx}-YNFIQDSMLDFE [Caprin1-derived dodecamer reporter peptide F*-YNFIQDSMLDFE],256 µM

# Target: G3BP1 NTF2-like domain (1-139) F33W (human, UniProt Q13283 1-139, F33W)
# Sequence (Q13283 1-139 F33W): as the sequence (Q13283 1-139) above, with F33W counted along it
# Assay: fluorescence polarisation
row,Binder,Kd
1,{fluorescein-Ahx}-YNFIQDSMLDFE [Caprin1-derived dodecamer reporter peptide F*-YNFIQDSMLDFE],79.3 µM

# Target: G3BP1 NTF2-like domain (1-139) F33/124W (human, UniProt Q13283 1-139, F33W | F124W)
# Sequence (Q13283 1-139 F33W/F124W): as the sequence (Q13283 1-139) above, with F33W, F124W counted along it
# Assay: fluorescence polarisation
row,Binder,Kd
1,{fluorescein-Ahx}-YNFIQDSMLDFE [Caprin1-derived dodecamer reporter peptide F*-YNFIQDSMLDFE],133 µM

# Target: G3BP1 NTF2-like domain (1-139) S38A (human, UniProt Q13283 1-139, S38A)
# Sequence (Q13283 1-139 S38A): as the sequence (Q13283 1-139) above, with S38A counted along it
# Assay: fluorescence polarisation
row,Binder,Kd
1,{fluorescein-Ahx}-YNFIQDSMLDFE [Caprin1-derived dodecamer reporter peptide F*-YNFIQDSMLDFE],7.3 µM

# Target: G3BP1 NTF2-like domain (1-139) S38G (human, UniProt Q13283 1-139, S38G)
# Sequence (Q13283 1-139 S38G): as the sequence (Q13283 1-139) above, with S38G counted along it
# Assay: fluorescence polarisation
row,Binder,Kd
1,{fluorescein-Ahx}-YNFIQDSMLDFE [Caprin1-derived dodecamer reporter peptide F*-YNFIQDSMLDFE],10.5 µM

# Target: G3BP1 NTF2-like domain (1-139) S38T (human, UniProt Q13283 1-139, S38T)
# Sequence (Q13283 1-139 S38T): as the sequence (Q13283 1-139) above, with S38T counted along it
# Assay: fluorescence polarisation
row,Binder,Kd
1,{fluorescein-Ahx}-YNFIQDSMLDFE [Caprin1-derived dodecamer reporter peptide F*-YNFIQDSMLDFE],11.8 µM
